Reference: the RNAGym collection of RNA variant scans (doi:10.1073/pnas.2313332121)
Fewer inactive variants are shown than the library holds.

B1: TPR 5TU (parent)
chain: GGAUCUUCUCGAUCUAACAAAAAAGACAAAUCUGCCACAAAGCUUGAGAGCAUCUUCGGAUGCAGAGGCGGCAGCCUUCGGUGGCGCGAUAGCGCCAACGUUCUCAACUAUGACACGCAAAACGCGUGCUCCGUUGAAUGGAGUUUAUCAUG

Variants of: B1
Assay: polymerase ribozyme fitness, log enrichment relative to wild type (log ratio); higher = more active; in vitro selection for triplet polymerase activity
Outline: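 One round of in vitro selection, in triplicate, was applied to PCR-built, transcribed mutant libraries of each subunit of a heterodimeric triplet polymerase ribozyme. The steps were annealing with a biotinylated primer, partner subunit and triplets, incubation frozen at −7 °C, gel excision of extended constructs, streptavidin-bead capture and RT-PCR. Fitness is the logarithm, base 2, of genotype enrichment over wild-type enrichment from inverse-variance-weighted replicate averages of Illumina-sequenced inputs and outputs, keeping genotypes with ≥10 input reads and ≥1 read per output.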

Polymerase ribozyme fitness (log ratio), -4.11:
GGAUCUUCUCGAUCUAACAAAAAAGAGAAAUCUGCCACGAAGCUUGAGAGCAUCUUCGGAUGCAGAGGCGGCAGCCUUCGGUGGCGCGCUAACGCCAACGUUCUCAACUAUGACACGCAAAACGCGAGCUCCGUUGAAUGGAGUUUAUCAUG [C27G A39G A89C G92A U127A]

Polymerase ribozyme fitness (log ratio), -4.03:
GGAUCUUCUCGAUCUAACAAAAAAGAGAAAUCUGCCACACAGCUUGAGAGCAUCUUCGGAUGCAGGGGCGGCAGCCUUUGGUGGCGCGAUCGCGCCAACGUUCUCAACUAUGACACGCAAAACGCGUGCUCCGUUGAAUGGAGUUUAUCAUG [C27G A40C A66G C79U A91C]

Polymerase ribozyme fitness (log ratio), -4.1:
GGAUCUUCUCGAUCUAACAAAAAAGAAAAAUCGGCCACAAAGCUUGAGAGCAUCAUCGGAUGCAGAGGCGGCAGCCUUCGGUGGCGCGAUAGCGCCAACGUUCUCAACUAUGACAGGCAAAACGCGUGCUCCGUUGAAUGGAGUUUAUCAUG [C27A U33G U55A C116G]

Polymerase ribozyme fitness (log ratio), -3.69:
GGAUCUUCUCGAUCUAACAAAAAAGAGAAAUCUGCCACAAAGCUUGAGAGCAUCUUCGGAUGCAGAGGCGGCAGCCUUCGGUGACGCGAUAGCGCCAACGUUCUCAACUAUGACACGCAAAACGCGUGCUCCGUUGAAUGGAGUUUAUCAUG [C27G G84A]

Polymerase ribozyme fitness (log ratio), ≤ -4.2:
GGAUCUUCUCGAUCUAACAAAAAAGAGAAAUCUGCCACAAAGAUUGAGAGCAUCUUCGGAUGCAGAGGCGGUAGCCUUCGGUGGCGCGAUAGAGCCAACGUUCUCAACUAUGACACGCAAAACGGGUGCUCCUUUGAAUGGAAUUUAUCAUG [C27G C43A C72U C93A C125G G133U G143A]
GGAUCUUCUCGAUCUAACAAAAAAGAAAAAUCUGCCACAAAGCUUGAGAGCAUCUUCGGAUGCAGAGGCGGCAGCCUUCGGUGGCGCGAUAGCGCCAACGUUCUCAACUAUGACACGCAAAACGCGUGCUCCGGUGAAAGGAGUUUAUCAUG [C27A U134G U139A]
GGAUCUUCUCGAUCUAACAAAAAAGAGAAAUCUGCCACAAAGCUUGAGAGCAUCUUCGGAUGCAGAGGCGGCAGCCUUCGGUGGCGCGAUAGCGCCAACGUUCUCAACUAUGACACGCAAAACGCGUGCUCCGUUGAAUGGACUUUAUCGUG [C27G G143C A150G]
GGAUCUUCUCGAUCUAACAAAAAAGAGAGAUCUGCCACAACGCUUGAGAGCAUCUUCGGAUGCAGAAGCGGCAACCUUCGGUGGCGCGAUAGCGCCAACGUUCUCAACUAUGACACGCAAAACGCGUGCUCCGUUGAAUGGAGUUUAUCAUG [C27G A29G A41C G67A G74A]
GGAUCUUCUCGAUCUAACAAAAAAGAGAAAUCUGCCACAAAGCUUGAGAGCAUAUUCGGAUGCACAGGCGGCAGCCUUCGGUGGCGCGAUAGCGUAAAAGUUCUCAACUAUGACACGCAAAACGCGUGCUCCGUUGAAUGGAGUUUAUCAUG [C27G C54A G65C C95U C96A C99A]
GGAUCUUCUCGAUCUAACAAAAAAGAAAAAUCUGCCACAAAGCUUGAGAGCAUCUGCGGUUGCAGAGGCGGCAGCCUUCGGUGGCUCGAUAGCGCCGACGUUCUCAACUAGGACACGCAAAACGCGUGCUCAGUGGAAUGGAGUUUAUCAUG [C27A U56G A60U G86U A97G U111G C132A U135G]
GGAUCUUCUCGAUCUAACAAAAAAGAAAAAUCUGCCACAAAGCUUGAGAGCAUCUUCGGAUGCAGAGGCGGCAGCCUUCGGAGGCGCGAUGGCGCCAACGUUCUCAACUAUGACACGCAAAACGCGUGCUGCGUUGAACGGAGUUUAUCAUG [C27A U82A A91G C131G U139C]
GGAUCUUCUCGAUCUAACAAAAAAGAGAAAUCUGCCACAAAGCUUGAGAGCAUCUUCGGAUGCAGAGGCGGCAGACUUGGGUGGCGCGAUAUCGCCAACGUUCUCAACUAUGACACGCAACACGCGUGCUGCGUUGAAUGGAGUUUCUCAUG [C27G C75A C79G G92U A121C C131G A147C]
GGAUCUUCUCGAUCUAACAAAAAAGAGAAAUCUGCCACAAAGCUUGAGAGCAUCUUGGGAAGCAGAGGCGGCAGCCUUCGGUGGCGCGAUAGCGCCAACGUUCUCCACUAUGACACGCAAAACGCGUGCUCCGUUGAAUGGAGUUUAUCAUG [C27G C57G U61A A106C]
GGAUCUUCUCGAUCUAACAAAAAAGAAAAAUCUGCCACAAAGCUUGAGACCAUCUUCGGAUGCAGAGGCGGCACCCCUCGGUGGCGCGAUAGCGCCAACGUUCACAACUAUGACACGCAAAACGCGUGCUCCGUUGAAUGGAGUUUAUCAUG [C27A G50C G74C U77C U104A]
GGAUCUUCUCGAUCUAACAAAAAAGAAAAAUCUGCCACAAAGCUUGAGAGCAUCUUCGGAUGCAGAGGCGGCAGCCUUCGGUGGCACGAUAGCGCCAACGUUCUCAACUAUGACACGCAAAACGCGUGCUCCGAUGAAUGGAGUUUGUCAUG [C27A G86A U134A A147G]
GGAUCUUCUCGAUCUAACAAAAAAGAAAAAUCUGCCACAAAGCAUGAGAGCAUCAUCGGAUGCAGGGGCGGCAGCCUUCGGUGGCGUGAUAGCGGCAACGUUCUCAACUGUGAUACGCAAAACGCGUGCUCCGUUGAAUGGAGAUUAUCAUG [C27A U44A U55A A66G C87U C95G A110G C114U U144A]
GGAUCUUCUCGAUCUAACAAAAAAGAGAAAUCUGCCACAAAGCUUGAGAGCAUCUUCGGAUGCAGAGGCGGCAGCUUUCGGUAGGGCGAUAGCGCCAACGUUCUCAUCUAUGACACGCUAAACGCGUGCUCCGUUGAAUGAAGUUUAUCAUG [C27G C76U G83A C85G A107U A119U G141A]
GGAUCUUCUCGAUCUAACAAAAAAGAGAAAUCUGCCACAAAGCUUGAGAACAUCUUCAGAUGCAGAGGCGGCAGCCUUCGGUUGCGCGAUAGCGCCAACGUUCUCAACUAUGACACGCAAAACGCGUGCUCCGUUGAAUGGAGUUUAUCAUG [C27G G50A G58A G83U]
GGAUCUUCUCGAUCUAACAAAAAAGAGAAAUCUGCCACAAAGCUUGAGGGCAUCUUCGGAUGCAGCGGCGGCAGCCUUCGGUGGCGCGAUAGCGCCAACGUUCUCAACUAUGACACGCAAAACGCGUGCUCCGUUGAAUGGAGUUUAUCAUG [C27G A49G A66C]
